The supplement of paper PMC9170038

System: MS2 coat protein
Assay: apparent KD of MS2 coat protein; designed switch direction (-1 OFF switch, 1 ON switch): -1; higher = weaker reporter binding
Procedure, shortened: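 Transcription of designed RNA switches on Illumina chips was done by stalled E. coli RNA polymerase. SNAP-549-labelled MS2 coat protein was then titrated in doubling steps from 0.7 or 1.5 nM to 3 µM, with steps of 0.8–1.5 h at the lowest and 10–20 min at the highest concentration. The per-design median over clusters of curve-fitted normalised fluorescence is reported as apparent KD.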

[1] = input ligand: microRNA oligo, concentration not stated
[2] = Eterna round: R95, input ligand: microRNA oligo, concentration not stated
[3] = Eterna round: R95, input ligand: FMN 200 uM
[4] = Eterna round: R95, input ligand: none

Row | Sequence | apparent KD of MS2 coat protein (input ligand: FMN 200 uM) | apparent KD of MS2 coat protein (input ligand: none) | apparent KD of MS2 coat protein [1] | apparent KD of MS2 coat protein [2] | apparent KD of MS2 coat protein [3] | apparent KD of MS2 coat protein [4]
1 | AUUUACGGAGGAUAUACUUGAGGAUCACCCAAGUGGAGUCCCGUUUGGGCGGUAAAUAGUAGAAGGCCGUCCUA [jl-ex3-4.46 ViennaUCT mod] (Eterna round: R97, puzzle: Exclusion 3) | 27.7 nM | 16.2 nM | – | – | – | –
2 | AGCUGAGCAGGAUAUACAUGAGGAUCACCCAUGUAUUCUCGAAGGCGCCGCAUAGCAUGUAGAAGGGUUUAGAU [Eternabot (L1) Solution 20] (Eterna round: R97, puzzle: Exclusion 3) | 17 nM | 23.2 nM | – | – | – | –
3 | GCACCAUGGCUUACUAGCCGUUAAACAUGAGGAUCACCCAUGUAGGAUAUGGUCUGGAUUACAGGCCAGAAGGGCGUAAGGUGC [JL Eli 026 mod] (Eterna round: R96, puzzle: Exclusion NG 3) | 15.9 nM | 19.8 nM | 13.1 nM | – | – | –
4 | AAAUCACAUGAGGAUCACCCAUGUGAGGAUAUGAUACUAUGUACUUCGGUACAUAGUAUCAGAAGGCAUGUGGA [Ex1-3: 89] (puzzle: Exclusion 1) | – | – | – | 28.2 nM | – | –
5 | UUGUUAUAUGUAGGAUAUGCGUAUUAUUAUUAGGCAGAAGGACAUGAGGAUCACCCAUGUAUGUUGUUGUUAUAUAUUAUAUAU [Title] (Eterna round: R96, puzzle: Exclusion NG 1) | – | – | 20.6 nM | – | – | –
6 | GAUGAGGUAGGAUAUACGAGAAGAUAGGGUAGAUAGAGAACACAUGAGGAUCACCCAUGUAGAAGGACCAGUAG [Mat - Exclusion 2 - Mod of my Tesla design - D73] (puzzle: Exclusion 2) | – | – | – | 25.9 nM | – | –
7 | AAGAAACAUGAGGAUCACCCAUGUGAGGAUAUGAAAAAGAAAAGAAAAGAAAGAAUAAUCAGAAGGCACAAAGG [Mat - Mod of Hog D11] (puzzle: Exclusion 1) | – | – | – | 34.3 nM | 50.7 nM | 40.1 nM
8 | GUCAGCUCGUGAGGAUAUACAUGAGGAUCACCCAUGUGAUCAAUAGCAGCUUCGGCUGCAAUAAUGUAGAAGGCACGAGCUGAC [ENG2/8-C] (Eterna round: R96, puzzle: Exclusion NG 2) | 60.5 nM | 144 nM | 76.2 nM | – | – | –
9 | UGCUGACGAGGAUAUACAUGAGGAUCACCCAUGUUGGUUCAGCGACGAUAGUCGCAAUGUAGAAGGCGUCAGCU [E3/9-A3] (Eterna round: R97, puzzle: Exclusion 3) | 202 nM | 765 nM | – | – | – | –
10 | UCUGCUUUAGGAUAUACGAGAUCCUGCGAUGUACUCUUCGGACAUGAGGAUCACCCAUGUAGAAGGAAAGCAGG [Eternabot (L2) Solution 20] (Eterna round: R97, puzzle: Exclusion 2) | 96.4 nM | 12.2 nM | – | – | – | –
11 | CGUAGCAUUGUGAGGAUAUCUAGAGCUUCGGCUCUAGAGAAGGCACAUGAGGAUCACCCAUGUGAUUAGCUACG [BmEx4/9-C1] (Eterna round: R97, puzzle: Brourd's mod of Exclusion 4) | 1760 nM | 111 nM | – | – | – | –
12 | ACAAGCUUUUAGAUUCUUAACAUGAGGAUCACCCAUGUGCUCGUCUUAUUUUCCGGCGGGCCGCCGGAAAAGCUUGU (Eterna round: R97, puzzle: Sensor, turn-off variant 1) | 92.5 nM | 93.8 nM | – | – | – | –
13 | GCCUCACAUGAGGAUCACCCAUGUCAGGAUAUCUAACGCGAGGUGCAGGCACUUCGUGAGAGAAGGGACGUCAA [Iszabius] (puzzle: Exclusion 1) | – | – | – | 19.4 nM | – | –
14 | UUUAAUUUUUUUUUUUUACAAGCUUUUUGCUCGUCUUAUACAUGAGGAUCACCCAUGUGGGUAAGGGAUAAAUUAUC [JMF 37] (Eterna round: R96, puzzle: Sensor v3, turn-off variant 2) | 65.4 nM | 59 nM | 51.8 nM | – | – | –
15 | UAUUCGCAAGCGAGAUCCCACAUGAGGAUCACCCAUGUGCUCGUCUUAUAAGGUACUGUGACGAGAGUCACGGUACC [Mat - Sensor, turn-off var - Eli Mod - D82] (Eterna round: R97, puzzle: Sensor, turn-off variant 1) | 16.8 nM | 14.7 nM | – | – | – | –
16 | UUACGGUAGAUCGUGGCUUUUUGCUCGUCUUGUGCUACAACAUGAGGAUCACCCAUGUAGAGGUGAUCUAUUGUAUU [Grok-var2-20 mod JAL] (puzzle: Sensor v3, turn-off variant 2) | – | – | – | 17.8 nM | 51.9 nM | 74.5 nM
17 | AUUAGCGUAGGAUAUUAGUACAUGUACAUGAGGAUCACCCAUGUGAGGUGAGUCUUAGAUUAAGAAGGGCGAAGAA [EX5 #34] (Eterna round: R97, puzzle: Exclusion 5) | 309 nM | 704 nM | – | – | – | –

Row | Sequence | apparent KD of MS2 coat protein (input ligand: FMN 200 uM) | apparent KD of MS2 coat protein (input ligand: none) | apparent KD of MS2 coat protein [1] | apparent KD of MS2 coat protein [2] | apparent KD of MS2 coat protein [3] | apparent KD of MS2 coat protein [4]
18 | GGAUCGAAUGUGAGGAUAUGCAGGUCCUUGGAUCUGCAGAAGGCACAUGAGGAUCACCCAUGUGACCUAGAUCC [Mat - Exclusion 4 - Eli Mod - D44] (Eterna round: R97, puzzle: Brourd's mod of Exclusion 4) | 268 nM | 30.5 nM | – | – | – | –
19 | AAAUGGAACAGAGGAUAUAGGGACAUGAGGAUCACCCAUGUUUUUUUUGGUUGGGUGGGUUUGGGCUAGAAGGCUGGGAAGAAA [Kawasakiqro] (Eterna round: R96, puzzle: Exclusion NG 2) | 30.2 nM | 33 nM | 26.8 nM | – | – | –
20 | AAAAAAAAAGUGAGGAUAUGCUCUACCUCGGUAGAGCAGAAGGCACAUGAGGAUCACCCAUGUGACUCCUCAUU [Omei Ex4B B25] (Eterna round: R97, puzzle: Brourd's mod of Exclusion 4) | 29.6 nM | 19.1 nM | – | – | – | –
21 | CCUUAUUAUCGAGGAUAUCCUAUUGAAAUUCUGGGAGAAGGCGGACUCAACAUGAGGAUCACCCAUGUGGGACGGAUGCUAGGA [salish99_exng1_r04_603] (Eterna round: R96, puzzle: Exclusion NG 1) | 21 nM | 20.2 nM | 13.5 nM | – | – | –
22 | GGGUGCAGGCUGAGGUCCUACAUGAGGAUCACCCAUGUGGUCCGGUGACGUGGGUCGCCGGACUUGGCUCGUCUUGU [salish99_S_TOV1_R5_012] (Eterna round: R97, puzzle: Sensor, turn-off variant 1) | 39 nM | 48.6 nM | – | – | – | –
23 | UUUUUAUAUGAAGGAUAUACUUAACAUGAGGAUCACCCAUGUGGUGUUGUGAGUGAGUGAGUUUAGUAGAAGGUCAACGAUUUU [JMF's solution 58] (Eterna round: R96, puzzle: Exclusion NG 2) | 810 nM | 421 nM | 322 nM | – | – | –
24 | GGUCAAGAACAGCGCCGCGCUGCCCUUGACCGCUCAUUUACAUGAGGAUCACCCAUGUUUUUUGCUUGUCUUGUUUC [Tiordiri] (puzzle: Sensor v3, turn-off variant 2) | – | – | – | 101 nM | 20.6 nM | 23.7 nM
25 | GUAUGUUAUGAGGAUAUCGGUGAACAUACACAUCGAGAAGGCAUGACAUGAGGAUCACCCAUGUCAAGGAUGAC [Exclusion 6 - B - 18:d] (puzzle: Exclusion 6) | – | – | – | 24.9 nM | – | –
26 | UACGUGUCAGGAUAUUUGAAGCGAAUCACGAGCAUUCGCGUGGAGAAGGGACAUGAGGAUCACCCAUGUAGGCG [Eternabot (L1) Solution 32] (Eterna round: R97, puzzle: Exclusion 4) | 370 nM | 242 nM | – | – | – | –
27 | UAUUAGCAAGUGAGAUCCGACAUGAGGAUCACCCAUGUGCUCGUCUUAUAAGCUAAUAUAAGAAAACUUAUAUUAGC [Elimod 7 - Jieux - Sensor, turn-off variant 1] (Eterna round: R97, puzzle: Sensor, turn-off variant 1) | 242 nM | 284 nM | – | – | – | –
28 | UUAUUAAAUGUAGGAUAUGCAUAUUAUUAUUAUGCAGAAGGACAUGAGGAUCACCCAUGUAUAUUAUUAUUAUUUAUUAUUUAU [Title] (Eterna round: R96, puzzle: Exclusion NG 1) | – | – | 35.5 nM | – | – | –
29 | GGAAAGGUAGGAUAUACGAAGAAAAAGGGUAGAAUAAUAACACAUGAGGAUCACCCAUGUAGAAGGACCAAAUG [Mat - Exclusion 2 - Mod of my Tesla design - D7] (puzzle: Exclusion 2) | – | – | – | 37.8 nM | 71.1 nM | 29 nM
30 | ACAACAUGAGGAUCACCCAUGUGUGUUGUCCCAUGUGUGUAUAAGGAUAUAUGAAGGAAGGAGGAAUAGAAGGUAUAGAAGGAG [Am I even doing this right] (Eterna round: R96, puzzle: Exclusion NG 3) | 84.1 nM | 1200 nM | 9.25 nM | – | – | –
31 | CUCGUGCAGCAAAGCUGUACGAGUACAUGAGGAUCACCCAUGUAGGAUAUGGUACGCAAAGCGUGCCAGAAGGACGUGCGUUAG [Mat - Exclusion NG 3 - Mod of JL - D94] (Eterna round: R96, puzzle: Exclusion NG 3) | 92.5 nM | 49.7 nM | 19.5 nM | – | – | –
32 | CAUGUGUUAGGAUAUGCACAGAUCUCCUAAUGGAGAUCUGUGCAGAAGGAACAUGAGGAUCACCCAUGUUGAUG [Mod of Brourd 13 - Jieux - Exclusion 4] (Eterna round: R97, puzzle: Exclusion 4) | 129 nM | 35.4 nM | – | – | – | –
33 | CCCAGUUAGGAAGGAUAUUGUACAUGAGGAUCACCCAUGUAAUAAAUGAGGAUCACGGAUGUAUACAAGAAGGUCCGGAUAGGC [Ostracism 9 - Jieux - Exclusion NG 2] (Eterna round: R96, puzzle: Exclusion NG 2) | – | – | 59.3 nM | – | – | –
